Measured values as given in patent US9273304B2, “Inactivation method” (Thermo Fisher Scientific Baltics UAB, priority 2006, dated 2016).

Assays:
Format in all cases: biochemical
Taq DNA polymerase [1] = target: T1, Taq DNA polymerase (Thermus aquaticus, UniProt P19821); test: 5′-3′ exonuclease activity: cleavage of 5′-labelled oligonucleotide duplexes at 37° C.; conditions: 4 hours, with or without dNTPs, FIG. 9, part B
Description: The exonuclease activity was determined using the following labeled complementary oligonucleotides: [SEQ ID NO: 3] 5′-[…]-3′ and [SEQ ID NO: 4] 5′-[…]-3′. Equal amounts (10 units) of the unmodified enzyme and the modified enzyme were incubated with the oligonucleotide duplexes for 4 hours at 37° C. in 10 μl of reaction buffer. Activity of the unmodified Taq DNA polymerase was tested in the following buffer: 75 mM Tris-HCl (pH 8.8 at 25° C.), 20 mM (NH4)SO4, 0.01% Tween20, and 2 mM MgCl2, while the buffer composition to test the modified Taq DNA polymerase was the following: 20 mM Tris-HCl (pH 8.3 at 25° C.), 20 mM KCl, 5 mM (NH4)SO4, and 2 mM MgCl2. Both reaction mixtures were tested either in the presence or in the absence of dNTPs.
Reactions were terminated by addition of 5 μl of a “stop” solution (95% (v/v) formamide and 0.01% bromophenol blue). After heating at 95° C. for 2 minutes, the samples were cooled in ice, and then they were loaded onto 15% denaturing acrylamide gel (29:1 acrylamide/bisacrylamide). Electrophoresis was performed in 89 mM Tris-borate (pH8.3 at 37° C.) supplemented with 2 mM EDTA for one hour at ˜50 V/cm. After electrophoresis, the gels were fixed in 10% acetic acid and dried. The gels were analyzed using Cyclone Storage Phosphor System and OptiQuant™ Image Analysis Software.

Taq DNA polymerase [2] = target: T1, Taq DNA polymerase; test: Activity in PCR measured by incorporation of [3H]-dTTP into the PCR product (pH and Mg2+ effect)
Description: Activity of Taq DNA polymerase modified with N-ethoxycarbonyl-N-2,3-dimethylmaleinimide at different pH during was measured by incorporation [^3H]-dTTP nucleotide into the PCR product.
Sets of PCR were carried out at the following pH values determined at 25° C.: 8.2, 8.3, 8.4, 8.5, 8.6, 8.7, and 8.8. The reactions were preformed in the GeneAmp® PCR System 9700 (Applied Biosystems) using 1.25 units of the modified enzymes in aliquots ([…] of the reaction buffer of the following composition: 20 mM Tris-HCl (pH values indicated above), 20 mM KCl, 5 mM (NH4)SO4, 1.5 mM MgCl2 supplemented with 0.2 mM dNTP, 0.8 MBq/ml [^3H]-dTTP, 0.5 […] of both PCR primers ([SEQ ID NO: 1] 5′-[…]-3′ and [SEQ ID NO: 2] 5′-[…]-3′), and human DNA (10 ng/50 μl).
Thermal cycling profile was the following: 95° C.—4 min; (95° C.—0.5 min, 50° C.—0.5 min, 72° C.—1 min)—30 cycles; 72° C.—7 min.
Activity of the modified DNA polymerase in PCR was determined as described in the Example 8. A set of PCR reactions was carried out in the reaction buffer (see Example 7) supplemented with the following Mg^2+ concentrations: 1 mM, 1.5 mM, 2 mM, 2.5 mM, 3 mM, 3.5 mM, 4 mM, 5 mM, 6 mM, 7 mM, and 8 mM.

Taq DNA polymerase [3] = target: T1, Taq DNA polymerase; test: Reactivation of the modified Taq DNA polymerase by pre-incubation, activity measured at 50° C.
Description: The activity of modified Taq DNA polymerase was assayed as described in the Example 2. The enzyme was pre-incubated at different temperatures in the pre-heating buffer (see Example 2), its activity was measured at 50° C. in the reaction buffer of the following composition: 50 mM Tris (pH 8.4 at 25° C.), 10 mM KCl, 5 mM (NH4)2SO4 and 2 mM MgCl2. The activity of the modified DNA polymerase was normalized the activity of the unmodified one.

T1 sequence (P19821 whole entry): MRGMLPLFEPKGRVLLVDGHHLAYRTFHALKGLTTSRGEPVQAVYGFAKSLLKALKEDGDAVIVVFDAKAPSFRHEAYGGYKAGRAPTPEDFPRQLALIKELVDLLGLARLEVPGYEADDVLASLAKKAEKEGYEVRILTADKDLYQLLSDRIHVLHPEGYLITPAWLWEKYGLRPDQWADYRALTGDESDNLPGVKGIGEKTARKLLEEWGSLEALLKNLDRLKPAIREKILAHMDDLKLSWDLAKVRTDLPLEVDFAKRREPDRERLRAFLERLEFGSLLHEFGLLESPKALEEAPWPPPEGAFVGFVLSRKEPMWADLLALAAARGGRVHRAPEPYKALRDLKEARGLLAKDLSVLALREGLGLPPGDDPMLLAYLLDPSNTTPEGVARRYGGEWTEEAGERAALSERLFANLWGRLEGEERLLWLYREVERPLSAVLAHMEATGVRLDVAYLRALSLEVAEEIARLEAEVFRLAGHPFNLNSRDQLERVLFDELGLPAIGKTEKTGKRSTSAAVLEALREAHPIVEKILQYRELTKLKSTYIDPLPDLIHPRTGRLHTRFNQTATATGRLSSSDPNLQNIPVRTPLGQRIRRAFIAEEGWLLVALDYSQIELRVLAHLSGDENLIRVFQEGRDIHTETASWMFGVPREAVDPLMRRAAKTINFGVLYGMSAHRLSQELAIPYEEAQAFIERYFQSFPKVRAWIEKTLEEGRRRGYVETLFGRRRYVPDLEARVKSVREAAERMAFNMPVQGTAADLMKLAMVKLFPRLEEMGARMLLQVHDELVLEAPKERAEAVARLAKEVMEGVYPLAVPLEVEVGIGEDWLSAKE

“Taq DNA polymerase modified with N-etoxycarbonyl-2,3-dimethylmaleinimide: Recombinant Taq DNA polymerase reversibly inactivated by reaction with N-ethoxycarbonyl-2,3-dimethylmaleinimide in aqueous solution (preferred molar ratio 1/110)” was tested, and the “5′-3′ exonuclease activity” value (Taq DNA polymerase [1]) was “practically devoid of exonuclease activity”, the “activity within the 1.5-5.0 mM range of Mg2+ concentrations” value (Taq DNA polymerase [2]; 1.5-5.0 mM Mg2+) was ≥ 70% and the “Activity at 70° C. (%)” value (Taq DNA polymerase [2]; [Mg2+] 1 mM, incorporation of [3H]-dTTP into the PCR product) was ~0%. The “Activity at 70° C. (%)” value (Taq DNA polymerase [2]; [Mg2+] 1.5 mM) was ~70%, the “Activity at 70° C. (%)” value (Taq DNA polymerase [2]; [Mg2+] 2.0 mM) was ~70% and the “Activity at 70° C. (%)” value (Taq DNA polymerase [2]; [Mg2+] 2.5 mM) was ~100%. The “Activity at 70° C. (%)” value (Taq DNA polymerase [2]; [Mg2+] 3.0 mM) was ~100%, the “Activity at 70° C. (%)” value (Taq DNA polymerase [2]; [Mg2+] 3.5 mM) was ~100% and the “Activity at 70° C. (%)” value (Taq DNA polymerase [2]; [Mg2+] 4.0 mM) was ~90%. The “Activity at 70° C. (%)” value (Taq DNA polymerase [2]; [Mg2+] 5.0 mM) was ~70%, the “Activity at 70° C. (%)” value (Taq DNA polymerase [2]; [Mg2+] 6.0 mM) was ~30% and the “Activity at 70° C. (%)” value (Taq DNA polymerase [2]; [Mg2+] 7.0 mM) was ~20%. For the same substance, the “Activity at 70° C. (%)” value (Taq DNA polymerase [2]; [Mg2+] 8.0 mM) was ~10%, the “Activity at 70° C. (%)” value (Taq DNA polymerase [2]; ambient pH 8.2, incorporation of [3H]-dTTP into the PCR product) was ~30% and the “Activity at 70° C. (%)” value (Taq DNA polymerase [2]; ambient pH 8.3) was ~80%. The “Activity at 70° C. (%)” value (Taq DNA polymerase [2]; ambient pH 8.4) was ~100%, the “Activity at 70° C. (%)” value (Taq DNA polymerase [2]; ambient pH 8.5) was ~100% and the “Activity at 70° C. (%)” value (Taq DNA polymerase [2]; ambient pH 8.6) was ~100%. The “Activity at 70° C. (%)” value (Taq DNA polymerase [2]; ambient pH 8.7) was ~100%, the “Activity at 70° C. (%)” value (Taq DNA polymerase [2]; ambient pH 8.8) was ~60% and the “activity within the pH 8.3-8.7 range” value (Taq DNA polymerase [2]; pH 8.3-8.7) was ≥ 80%. For the same substance, the “Activity at 50° C. (%)” value (Taq DNA polymerase [3]; incubation time at 95° C. 0 min) was ~0%, the “Activity at 50° C. (%)” value (Taq DNA polymerase [3]; incubation time at 95° C. 0.5 min, listed as modified Taq DNA polymerase) was ~60% and the “Activity at 50° C. (%)” value (Taq DNA polymerase [3]; incubation time at 95° C. 0.5 min, listed as modified enzyme) was ~60%. The “Activity at 50° C. (%)” value (Taq DNA polymerase [3]; incubation time at 95° C. 1 min, listed as modified Taq DNA polymerase) was ~90%, the “Activity at 50° C. (%)” value (Taq DNA polymerase [3]; incubation time at 95° C. 1 min, listed as modified enzyme) was ~90% and the “Activity at 50° C. (%)” value (Taq DNA polymerase [3]; incubation time at 95° C. 1.5 min) was ~90%. For the same substance, the “Activity at 50° C. (%)” value (Taq DNA polymerase [3]; incubation time at 95° C. 2.0 min) was ~100%, the “Activity at 50° C. (%)” value (Taq DNA polymerase [3]; incubation time at 95° C. 3.0 min) was ~100% and the “reactivation by preheating at 90° C.” value (Taq DNA polymerase [3]; preheated at 90° C. for several minutes, FIG. 8) was “regained full activity”.
